In US20230407373A1 (priority 2020, published 2023):

Test system: HCoV-OC43 gRNA and sgRNA
Format: binding
Details: for target (unweighted spectral count, OC43 Probe II capture): 36 hpi, type n_36_v, tested against no-probe control, FDR<10%

Molecule | target (unweighted spectral count, OC43 Probe II capture) | target (unweighted spectral count, OC43 Probe II) (type n_48_v, 48 hpi, OC43 Probe II capture on infected cells) | background (unweighted spectral count, no-probe control) (type n_48_v, 48 hpi, no-probe control on infected cells)
SF3B1 (protein, UniProt O75533 1-1304, looked up) Splicing factor 3B subunit 1: MAKIAKTHEDIEAQIREIQGKKAALDEAQGVGLDSTGYYDQEIYGGSDSRFAGYVTSIAATELEDDDDDYSSSTSLLGQKKPGYHAPVALLNDIPQSTEQYDPFAEHRPPKIADREDEYKKHRRTMIISPERLDPFADGGKTPDPKMNARTYMDVMREQHLTKEEREIRQQLAEKAKAGELKVVNGAAASQPPSKRKRRWDQTADQTPGATPKKLSSWDQAETPGHTPSLRWDETPGRAKGSETPGATPGSKIWDPTPSHTPAGAATPGRGDTPGHATPGHGGATSSARKNRWDETPKTERDTPGHGSGWAETPRTDRGGDSIGETPTPGASKRKSRWDETPASQMGGSTPVLTPGKTPIGTPAMNMATPTPGHIMSMTPEQLQAWRWEREIDERNRPLSDEELDAMFPEGYKVLPPPAGYVPIRTPARKLTATPTPLGGMTGFHMQTEDRTMKSVNDQPSGNLPFLKPDDIQYFDKLLVDVDESTLSPEEQKERKIMKLLLKIKNGTPPMRKAALRQITDKAREFGAGPLFNQILPLLMSPTLEDQERHLLVKVIDRILYKLDDLVRPYVHKILVVIEPLLIDEDYYARVEGREIISNLAKAAGLATMISTMRPDIDNMDEYVRNTTARAFAVVASALGIPSLLPFLKAVCKSKKSWQARHTGIKIVQQIAILMGCAILPHLRSLVEIIEHGLVDEQQKVRTISALAIAALAEAATPYGIESFDSVLKPLWKGIRQHRGKGLAAFLKAIGYLIPLMDAEYANYYTREVMLILIREFQSPDEEMKKIVLKVVKQCCGTDGVEANYIKTEILPPFFKHFWQHRMALDRRNYRQLVDTTVELANKVGAAEIISRIVDDLKDEAEQYRKMVMETIEKIMGNLGAADIDHKLEEQLIDGILYAFQEQTTEDSVMLNGFGTVVNALGKRVKPYLPQICGTVLWRLNNKSAKVRQQAADLISRTAVVMKTCQEEKLMGHLGVVLYEYLGEEYPEVLGSILGALKAIVNVIGMHKMTPPIKDLLPRLTPILKNRHEKVQENCIDLVGRIADRGAEYVSAREWMRICFELLELLKAHKKAIRRATVNTFGYIAKAIGPHDVLATLLNNLKVQERQNRVCTTVAIAIVAETCSPFTVLPALMNEYRVPELNVQNGVLKSLSFLFEYIGEMGKDYIYAVTPLLEDALMDRDLVHRQTASAVVQHMSLGVYGFGCEDSLNHLLNYVWPNVFETSPHVIQAVMGALEGLRVAIGPCRMLQYCLQGLFHPARKVRDVYWKIYNSIYIGSQDALIAHYPRIYNDDKNTYIRYELDYIL | 6 |  | 
SNX13 (protein, UniProt Q9Y5W8 1-968, looked up) Sorting nexin-13: MLTEASLSIWGWGSLGIVLFLITFGPFVIFYLTFYILCFVGGGLVVTLLFGKTNSEKYLEQCEHSFLPPTSPGVPKCLEEMKREARTIKIDRRLTGANIIDEPLQQVIQFSLRDYVQYWYYTLSDDESFLLEIRQTLQNALIQFATRSKEIDWQPYFTTRIVDDFGTHLRVFRKAQQKITEKDDQVKGTAEDLVDTFFEVEVEMEKEVCRDLVCTSPKDEEGFLRDLCEVLLYLLLPPGDFQNKIMRYFVREILARGILLPLINQLSDPDYINQYVIWMIRDSNCNYEAFMNIIKLSDNIGELEAVRDKAAEELQYLRSLDTAGDDINTIKNQINSLLFVKKVCDSRIQRLQSGKEINTVKLAANFGKLCTVPLDSILVDNVALQFFMDYMQQTGGQAHLFFWMTVEGYRVTAQQQLEVLLSRQRDGKHQTNQTKGLLRAAAVGIYEQYLSEKASPRVTVDDYLVAKLADTLNHEDPTPEIFDDIQRKVYELMLRDERFYPSFRQNALYVRMLAELDMLKDPSFRGSDDGDGESFNGSPTGSINLSLDDLSNVSSDDSVQLHAYISDTVYADYDPYAVAGVCNDHGKTYALYAITVHRRNLNSEEMWKTYRRYSDFHDFHMRITEQFESLSSILKLPGKKTFNNMDRDFLEKRKKDLNAYLQLLLAPEMMKASPALAHYVYDFLENKAYSKGKGDFARKMDTFVNPLRNSMRNVSNAVKSLPDSLAEGMTKMSDNMGKMSERLGQDIKQSFFKVPPLIPKTDSDPEHRRVSAQLDDNVDDNIPLRVMLLLMDEVFDLKERNQWLRRNIKNLLQQLIRATYGDTINRKIVDHVDWMTSPEQVADSVKRFRDAFWPNGILAEAVPCRDKSIRMRTRVAGKTKLLAIMPDELKHIIGAETTRKGILRVFEMFQHNQLNRRMVYVFLEGFLETLFPQYKFRELFNKLHSRSKQMQKYKQKLQTTQAPSLQKR | 5 |  | 
SRP72 (protein, UniProt O76094 2-671, looked up) Signal recognition particle …: ASGGSGGVSVPALWSEVNRYGQNGDFTRALKTVNKILQINKDDVTALHCKVVCLIQNGSFKEALNVINTHTKVLANNSLSFEKAYCEYRLNRIENALKTIESANQQTDKLKELYGQVLYRLERYDECLAVYRDLVRNSQDDYDEERKTNLSAVVAAQSNWEKVVPENLGLQEGTHELCYNTACALIGQGQLNQAMKILQKAEDLCRRSLSEDTDGTEEDPQAELAIIHGQMAYILQLQGRTEEALQLYNQIIKLKPTDVGLLAVIANNIITINKDQNVFDSKKKVKLTNAEGVEFKLSKKQLQAIEFNKALLAMYTNQAEQCRKISASLQSQSPEHLLPVLIQAAQLCREKQHTKAIELLQEFSDQHPENAAEIKLTMAQLKISQGNISKACLILRSIEELKHKPGMVSALVTMYSHEEDIDSAIEVFTQAIQWYQNHQPKSPAHLSLIREAANFKLKYGRKKEAISDLQQLWKQNPKDIHTLAQLISAYSLVDPEKAKALSKHLPSSDSMSLKVDVEALENSAGATYIRKKGGKVTGDSQPKEQGQGDLKKKKKKKKGKLPKNYDPKVTPDPERWLPMRERSYYRGRKKGKKKDQIGKGTQGATAGASSELDASKTVSSPPTSPRPGSAATVSASTSNIIPPRHQKPAGAPATKKKQQQKKKKGGKGGW | 4 |  | 
UBAP2 (protein, UniProt Q5T6F2 1-1119, looked up) Ubiquitin-associated protein 2: MMTSVSSDHCRGAREKPQISAAQSTQPQKQVVQATAEQMRLAQVIFDKNDSDFEAKVKQLMEVTGKNQDECIVALHDCNGDVNKAINILLEGNSDTTSWETVGCKKKNFAKENSENKENREKKSEKESSRGRGNNNRKGRGGNRGREFRGEENGIDCNQVDKPSDRGKRARGRGFGRGRGRGAGRFSTQGMGTFNPADYSDSTSTDVCGTKLVVWEAAQNGADEGTELASNTHNIAQDLSNKSSYGLKGAWKNSVEEWTTEDWTEDLSETKVFTASSAPAENHILPGQSIDLVALLQKPVPHSQASEANSFETSQQQGFGQALVFTNSQHNNQMAPGTGSSTAVNSCSPQSLSSVLGSGFGELAPPKMANITSSQILDQLKAPSLGQFTTTPSTQQNSTSHPTTTTSWDLKPPTSQSSVLSHLDFKSQPEPSPVLSQLSQRQQHQSQAVTVPPPGLESFPSQAKLRESTPGDSPSTVNKLLQLPSTTIENISVSVHQPQPKHIKLAKRRIPPASKIPASAVEMPGSADVTGLNVQFGALEFGSEPSLSEFGSAPSSENSNQIPISLYSKSLSEPLNTSLSMTSAVQNSTYTTSVITSCSLTSSSLNSASPVAMSSSYDQSSVHNRIPYQSPVSSSESAPGTIMNGHGGGRSQQTLDTPKTTGPPSALPSVSSLPSTTSCTALLPSTSQHTGDLTSSPLSQLSSSLSSHQSSLSAHAALSSSTSHTHASVESASSHQSSATFSTAATSVSSSASSGASLSSSMNTANSLCLGGTPASASSSSSRAAPLVTSGKAPPNLPQGVPPLLHNQYLVGPGGLLPAYPIYGYDELQMLQSRLPVDYYGIPFAAPTALASRDGSLANNPYPGDVTKFGRGDSASPAPATTPAQPQQSQSQTHHTAQQPFVNPALPPGYSYTGLPYYTGMPSAFQYGPTMFVPPASAKQHGVNLSTPTPPFQQASGYGQHGYSTGYDDLTQGTAAGDYSKGGYAGSSQAPNKSAGSGPGKGVSVSSSTTGLPDMTGSVYNKTQTFDKQGFHAGTPPPFSLPSVLGSTGPLASGAAPGYAPPPFLHILPAHQQPHSQLLHHHLPQDAQSGSGQRSQPSSLQPKSQASKPAYGNSPYWTN | 4 |  | 
TFB1M (protein, UniProt Q8WVM0 28-346, looked up) Dimethyladenosine transferase …: QAAKQLSQNFLLDLRLTDKIVRKAGNLTNAYVYEVGPGPGGITRSILNADVAELLVVEKDTRFIPGLQMLSDAAPGKLRIVHGDVLTFKVEKAFSESLKRPWEDDPPNVHIIGNLPFSVSTPLIIKWLENISCRDGPFVYGRTQMTLTFQKEVAERLAANTGSKQRSRLSVMAQYLCNVRHIFTIPGQAFVPKPEVDVGVVHFTPLIQPKIEQPFKLVEKVVQNVFQFRRKYCHRGLRMLFPEAQRLESTGRLLELADIDPTLRPRQLSISHFKSLCDVYRKMCDEDPQLFAYNFREELKRRKSKNEEKEEDDAENYRL | 4 |  | 
GNL3 (protein, UniProt Q9BVP2 1-549, looked up) Guanine nucleotide-binding …: MKRPKLKKASKRMTCHKRYKIQKKVREHHRKLRKEAKKRGHKKPRKDPGVPNSAPFKEALLREAELRKQRLEELKQQQKLDRQKELEKKRKLETNPDIKPSNVEPMEKEFGLCKTENKAKSGKQNSKKLYCQELKKVIEASDVVLEVLDARDPLGCRCPQVEEAIVQSGQKKLVLILNKSDLVPKENLESWLNYLKKELPTVVFRASTKPKDKGKITKRVKAKKNAAPFRSEVCFGKEGLWKLLGGFQETCSKAIRVGVIGFPNVGKSSIINSLKQEQMCNVGVSMGLTRSMQVVPLDKQITIIDSPSFIVSPLNSSSALALRSPASIEVVKPMEAASAILSQADARQVVLKYTVPGYRNSLEFFTVLAQRRGMHQKGGIPNVEGAAKLLWSEWTGASLAYYCHPPTSWTPPPYFNESIVVDMKSGFNLEELEKNNAQSIRAIKGPHLANSILFQSSGLTNGIIEEKDIHEELPKRKERKQEEREDDKDSDQETVDEEVDENSSGMFAAEETGEALSEETTAGEQSTRSFILDKIIEEDDAYDFSTDYV | 4 |  | 
EIF2A (protein, UniProt Q9BY44 1-585, looked up) Eukaryotic translation …: MAPSTPLLTVRGSEGLYMVNGPPHFTESTVFPRESGKNCKVCIFSKDGTLFAWGNGEKVNIISVTNKGLLHSFDLLKAVCLEFSPKNTVLATWQPYTTSKDGTAGIPNLQLYDVKTGTCLKSFIQKKMQNWCPSWSEDETLCARNVNNEVHFFENNNFNTIANKLHLQKINDFVLSPGPQPYKVAVYVPGSKGAPSFVRLYQYPNFAGPHAALANKSFFKADKVTMLWNKKATAVLVIASTDVDKTGASYYGEQTLHYIATNGESAVVQLPKNGPIYDVVWNSSSTEFCAVYGFMPAKATIFNLKCDPVFDFGTGPRNAAYYSPHGHILVLAGFGNLRGQMEVWDVKNYKLISKPVASDSTYFAWCPDGEHILTATCAPRLRVNNGYKIWHYTGSILHKYDVPSNAELWQVSWQPFLDGIFPAKTITYQAVPSEVPNEEPKVATAYRPPALRNKPITNSKLHEEEPPQNMKPQSGNDKPLSKTALKNQRKHEAKKAAKQEARSDKSPDLAPTPAPQSTPRNTVSQSISGDPEIDKKIKNLKKKLKAIEQLKEQAATGKQLEKNQLEKIQKETALLQELEDLELGI | 4 | 5 | 1
C8orf33 (protein, UniProt Q9H7E9 2-229, looked up) UPF0488 protein C8orf33: AALGHLAGEAAAAPGPGTPCASRGARLPGPVSSARNPSTVCLCPEQPTCSNADSRAHPLGDEGGTASKKQKNKKKTRNRASVANGGEKASEKLAPEEVPLSAEAQAQQLAQELAWCVEQLELGLKRQKPTPKQKEQAIGAIRTLRSKRTPLPRKRQLMHSLFGDYRAQMEAEWREALRALRAAAYSAQVQPVDGATRKKSQRVCRPRSIWRAKATLDMPDEEFRFNFF | 4 |  | 
